Test results as given in the RNAGym collection of RNA variant scans (doi:10.7554/elife.80360).

B1: HDV Ribozyme (parent)
chain: GGCCGGCAUGGUCCCAGCCUCCUCGCUGGCGCCGGCUGGGCAACAUUCCGAGGGGACCGUCCCCUCGGUAAUGGCGAAUGGGACCCA

Variants of: B1
Experiment: self-cleavage, relative activity (ratio to wild type); higher = more cleavage; co-transcriptional

| Variant | self-cleavage |
| --- | --- |
| GGCCGGCAUGGGCCCAGCCUCCUCGCUGGCGCCGACUGGGCAACAUUCCGAGGGGACCGUCCCCUCGGUAAUGGCGAAUGGGACCCA | 0.19 |
| GGCCGGCAUGGGCCCAGCCUCCUCGCUGGCGCCGGCUGGGCAACAUUCCGAGGGGACCGACCCCUCGGUAAUGGCGAAUGGGACCCA | 0.68 |
| GGCCGGCAUGGUACCAGCCUCCUCGCUGGCGCCGGCUGGGCAACAUUUCGAGGGGACCGUCCCCUCGGUAAUGGCGAAUGGGACCCA | 0.284 |
| GGCCGGCAUGGUACCAGCCUCUUCGCUGGCGCCGGCUGGGCAACAUUCCGAGGGGACCGUCCCCUCGGUAAUGGCGAAUGGGACCCA | 0.0583 |
| GGCCGGCAUGGGCCCAGCCUCCUCGCUGGCGCCGGCUGGGCAACAUUCCGAGGCGACCGUCCCCUCGGUAAUGGCGAAUGGGACCCA | 0.831 |
| GGCCGGCAUGGGCCCAGCCUCCACGCUGGCGCCGGCUGGGCAACAUUCCGAGGGGACCGUCCCCUCGGUAAUGGCGAAUGGGACCCA | 0.875 |
| GGCCGGCAUGGUACCAGCCUCCUCGCUGGCGCCGGCUGGGCAACAUUCCGACGGGACCGUCCCCUCGGUAAUGGCGAAUGGGACCCA | 0.383 |
| GGCCGGCAUGGUACCAGCCUCCUCGCUGGCGCCGGCUGGGCAACAUUCCGAAGGGACCGUCCCCUCGGUAAUGGCGAAUGGGACCCA | 0.229 |
| GGCCGGCAUGGUACCAGCCUCCUCGCUGGCGCCGGCUGGGCAACAUUCCGAGGGGACCGUUCCCUCGGUAAUGGCGAAUGGGACCCA | 0.185 |
| GGCCGGCAUGGUACCAGCCUCCUCGCUGGCGCCGGCUGUGCAACAUUCCGAGGGGACCGUCCCCUCGGUAAUGGCGAAUGGGACCCA | 0.0615 |
| GGCCGGCAUGGUACCAGCCUCCUCGCUGGCGCCGGCUGGGCAACAUUCGGAGGGGACCGUCCCCUCGGUAAUGGCGAAUGGGACCCA | 0.0326 |
| GGCCGGCAUGGUACCAGCCUCCUCGCUGGCGCCGGCUGGGCAACAUUCUGAGGGGACCGUCCCCUCGGUAAUGGCGAAUGGGACCCA | 0.119 |
| GGCCGGCAUGGUACGAGCCUCCUCGCUGGCGCCGGCUGGGCAACAUUCCGAGGGGACCGUCCCCUCGGUAAUGGCGAAUGGGACCCA | 0.142 |
| GGCCGGCAUGGUACCAGCGUCCUCGCUGGCGCCGGCUGGGCAACAUUCCGAGGGGACCGUCCCCUCGGUAAUGGCGAAUGGGACCCA | 0.102 |
| GGCCGGCAUGGUACCAGCUUCCUCGCUGGCGCCGGCUGGGCAACAUUCCGAGGGGACCGUCCCCUCGGUAAUGGCGAAUGGGACCCA | 0.119 |
| GGCCGGCAUGGUACCAGCAUCCUCGCUGGCGCCGGCUGGGCAACAUUCCGAGGGGACCGUCCCCUCGGUAAUGGCGAAUGGGACCCA | 0.0302 |

| Variant | self-cleavage |
| --- | --- |
| GGCCGGCAUGGUACCAGCCUCCUCGCUGUCGCCGGCUGGGCAACAUUCCGAGGGGACCGUCCCCUCGGUAAUGGCGAAUGGGACCCA | 0.0782 |
| GGCCGGCAUGGGCCCAGCCUCCUCGCUGGCGCCGGCUGGGCAACAUUCCGAGGGGACCGUCCCCUCAGUAAUGGCGAAUGGGACCCA | 0.923 |
| GGCCGGCAUGGGCCCAGCCUCCUCGCUGGCGCCGGCUGGGCAACAUUCCGAGGGGACCGUCCCCUCCGUAAUGGCGAAUGGGACCCA | 0.962 |
| GGCCGGCAUGGGCCCAGCCUCCUCGCUGGCGCCGGCCGGGCAACAUUCCGAGGGGACCGUCCCCUCGGUAAUGGCGAAUGGGACCCA | 0.692 |
| GGCCGGCAUGGGCCCAGCCUCCUCGCUGGCGCCGGCGGGGCAACAUUCCGAGGGGACCGUCCCCUCGGUAAUGGCGAAUGGGACCCA | 0.277 |
| GGCCGGCAUGGUACCAGCCUCCUCGCUGGCGCCGGCUGGGCAACAUUCCGAGGGGAUCGUCCCCUCGGUAAUGGCGAAUGGGACCCA | 0.175 |
| GGCCGGCAUGGGCCCAGCCUCCUCGCUGGCGCCGGCUGGUCAACAUUCCGAGGGGACCGUCCCCUCGGUAAUGGCGAAUGGGACCCA | 0.655 |
| GGCCGGCAUGGGCCCAGCCUCCUCGCUGGCGCCGGCUGGGCAACAUUCCGAAGGGACCGUCCCCUCGGUAAUGGCGAAUGGGACCCA | 1.05 |
| GGCCGGCAUGGUACCAGCCUGCUCGCUGGCGCCGGCUGGGCAACAUUCCGAGGGGACCGUCCCCUCGGUAAUGGCGAAUGGGACCCA | 0.0332 |
| GGCCGGCAUGGUACCAGCCUCCUCGCUGGCGCCGGCUGGGCAACUUUCCGAGGGGACCGUCCCCUCGGUAAUGGCGAAUGGGACCCA | 0.128 |
| GGCCGGCAUGGUACCAGCCUCCUCGCUGGCGCCGGCUGGGCAACCUUCCGAGGGGACCGUCCCCUCGGUAAUGGCGAAUGGGACCCA | 0.0707 |
| GGCCGGCAUGGUACCAGCCUCCUCGCUGGCGCCGGCUGGGCAACAUUCCGAGAGGACCGUCCCCUCGGUAAUGGCGAAUGGGACCCA | 0.229 |
| GGCCGGCAUGGUACCAGCCUCCUCGCUGGUGCCGGCUGGGCAACAUUCCGAGGGGACCGUCCCCUCGGUAAUGGCGAAUGGGACCCA | 0.181 |
| GGCCGGCAUGGGCCCAGCCUCCUCGCUGGCGCCGGCUGGGCAACAUUCCGAGGGGACCGUCCCCUCGGUAAUGGCGAAUAGGACCCA | 0.906 |
| GGCCGGCAUGGUACCAGCCUCCUCGCUGGCGCCGGCUGGGCAACAUUCCGAGGGGACCGUCCGCUCGGUAAUGGCGAAUGGGACCCA | 0.38 |
| GGCCGGCAUGGGCCCAGCCUCCUCGCUGGCGCCCGCUGGGCAACAUUCCGAGGGGACCGUCCCCUCGGUAAUGGCGAAUGGGACCCA | 0.172 |
